# Experimental data reported in patent US20050182242A1, “Global analysis of protein activities using proteome chips” (priority 2001, published 2005).
# B1: VAC7: yeast GST-HisX6 fusion protein on proteome chip (protein, UniProt P53950 1-1165, looked up)
# Vacuolar segregation protein 7: MTEEDRKLTVETETVEAPVANNLLLSNNSNVVAPNPSIPSASTSTSPLHREIVDDSVATANTTSNVVQHNLPTIDNNLMDSDATSHNQDHWHSDINRAGTSMSTSDIPTDLHLEHIGSVSSTNNNSNNALINHNPLSSHLSNPSSSLRNKKSSLLVASNPAFASDVELSKKKPAVISNNMPTSNIALYQTARSANIHGPSSTSASKAFRKASAFSNNTAPSTSNNIGSNTPPAPLLPLPSLSQQNKPKIIERPTMHVTNSREILLGENLLDDTKAKNAPANSTTHDNGPVANDGLRIPNHSNADDNENNNKMKKNKNINSGKNERNDDTSKICTTSTKTAPSTAPLGSTDNTQALTASVSSSNADNHNNNKKKTSSNNNGNNSNSASNKTNADIKNSNADLSASTSNNNAINDDSHESNSEKPTKADFFAARLATAVGENEISDSEETFVYESAANSTKNLIFPDSSSQQQQQQQQPPKQQQQQQNHGITSKISAPLLNNNKKLLSRLKNSRHISTGAILNNTIATISTNPNLNSNVMQNNNNLMSGHNHLDELSSIKQEPPHQLQQQQPPMDVQSVDSYTSDNPDSNVIAKSPDKRSSLVSLSKVSPHLLSSTSSNGNTISCPNVATNSQELEPNNDISTKKSLSNSTLRHSSANRNSNYGDNKRPLRTTVSKIFDSNPNGAPLRRYSGVPDHVNLEDYIEQPHNYPTMQNSVKKDEFYNSRNNKFPHGLNFYGDNNVIEEENNGDSSNVNRPQHTNLQHEFIPEDNESDENDIHSMFYYNHKNDLETKPLISDYGEDEDVDDYDRPNATFNSYYGSASNTHELPLHGRMPSRSNNDYYDFMVGNNTGNNNQLNEYTPLRMKRGQRHLSRTNNSIMNGSIHMNGNDDVTHSNINNNDIVGYSPHNFYSRKSPFVKVKNFLYLAFVISSLLMTGFILGFLLATNKELQDVDVVVMDNVISSSDELIFDITVSAFNPGFFSISVSQVDLDIFAKSSYLKCDSNGDCTVMEQERKILQITTNLSLVEESANNDISGGNIETVLLGTAKKLETPLKFQGGAFNRNYDVSVSSVKLLSPGSREAKHENDDDDDDDGDDGDDENNTNERQYKSKPNARDDKEDDTKKWKLLIKHDYELIVRGSMKYEVPFFNTQKSTAIQKDSMVHPGKK
# modifications: GST-His6 tag
# notes: yeast GST-HisX6 fusion protein on proteome chip
# B2: BUD32: yeast GST-HisX6 fusion protein on proteome chip (protein, UniProt P53323 1-261, looked up)
# EKC/KEOPS complex subunit …: MTQEFIDKVSSYLTPDVDIAPISQGAEAIVFTTTTHPYLPRAKDSHQKYIIKYRPPKRYRHPQIDQALTKHRTLNESRLLAKLYLIPGLCVPQLIACDPYNGFIWLEFLGEDLPGGHGFSNLKNFLWMHDQDPYSDLVATTLRKVGRQIGLLHWNDYCHGDLTSSNIVLVRDGARWTPHLIDFGLGSVSNLVEDKGVDLYVLERAILSTHSKHAEKYNAWIMEGFEEVYREQGAKGAKKLKEVTKRFEEVRLRGRKRSMLG
# modifications: GST-His6 fusion tag
# notes: as for B1
# B3: SDS22: yeast GST-HisX6 fusion protein on proteome chip (protein, UniProt P36047 1-338, looked up)
# Protein phosphatase 1 …: MDKNSVNKDSEEKDERHKIEVVDDTNPDFITADSELTQDLPDDVEVIDLVHLKIKSLEDLNLYRFKNLKQLCLRQNLIESISEVEVLPHDKIVDLDFYDNKIKHISSNVNKLTKLTSLDLSFNKIKHIKNLENLTDLENLYFVQNSISKIENLSTLKSLKNLELGGNKVHSIEPDSFEGLSNLEEIWLGKNSIPRLINLHPLKNLKILSIQSNKLKKIENLEELTNLEELYLSHNFITKIEGLEKNLKLTTLDVTSNKITSLENLNHLSNLTDIWASFNKIDQSFESLGENLSALSRLETIYLEGNPIQLENKTSYRRKLTMNLPPSLQKIDATYIRG
# modifications: GST-HisX6 tag
# notes: as for B1
# B4: SPO1: yeast GST-HisX6 fusion protein on proteome chip (protein, UniProt P53541 18-631, looked up)
# Putative meiotic …: TAPFQVQCPSSPLIREAKHELCPEETLYLKKKKIKTKNKLIQFLKSLTEAKFSSKFYKRVLKDPPKIGIAISGGGYRSMLVGTGFISQMNDYGLFEYSDYIAGLSGGSWILMDLVVQNFEVKSLLQEWDLEEDLLLGIPEFDISEEEIVTNAKKEYNDNDLKMKKRQGGSLITSSSNFYEQIEEIMNSIEEIPEDYMITKRNLNPLARLKKIFFPNNTFTGTDAKIETFKKVLDFYKSLHLKIKPKKMEGFQISFTDYWGKAIVQRLKKNFDDDPNHSFSFSKLVNSSKKFKECSVPIPIFVANCKNGLLSNVIFEFTPFEFGSWENILRLFVKLPYLGSKIVSGKAEKCINNFDDLGFITATSSSIFNNVLIFIWNLASQSSREAMKALNMVMGIFGLGKEEIFSISKDSSRLETDYAVYQPNPFYLYPEKDNVLTNKNHLYLVDGGEDGENIPLRTLVIPERELDVIFVLDSSSDIDNYPNGSKLKRIFEKLDEENVHYQFPNNVKTFTHPIVIGCNATKRTGHDSFLPIIIYHANANHGNASNTSTFKITYNQSEVSSMLPTGRGVFSNDYDLYYKNCLGCILTKRTMDRLPRKKKFSPFCLQCFKDYCYS
# modifications: GST-His6 tag
# notes: as for B1
# B5: CAK1: yeast GST-HisX6 fusion protein on proteome chip (protein, UniProt P43568 1-368, looked up)
# Serine/threonine-protein …: MKLDSIDITHCQLVKSTRTARIYRSDTYAIKCLALDFDIPPHNAKFEVSILNKLGNKCKHILPLLESKATDNNDLLLLFPFEEMNLYEFMQMHYKRDRRKKNPYYDLLNPSIPIVADPPVQKYTNQLDVNRYSLSFFRQMVEGIAFLHENKIIHRDIKPQNIMLTNNTSTVSPKLYIIDFGISYDMANNSQTSAEPMDSKVTDISTGIYKAPEVLFGVKCYDGGVDVWSLLIIISQWFQRETSRMGHVPAMIDDGSDDMNSDGSDFRLICSIFEKLGIPSIQKWEEVAQHGSVDAFVGMFGADGDGKYVLDQEKDVQISIVERNMPRLDEIADVKVKQKFINCILGMVSFSPNERWSCQRILQELEKP
# modifications: GST-HisX6 tag
# notes: as for B1
# B6: YEL064C: yeast GST-HisX6 fusion protein on proteome chip (protein, UniProt P39981 1-480, looked up)
# Vacuolar amino acid …: MSELGEYSKLENKELRTEFELTNFPFPGTTDNDSDDGSQGQNSLNIITPDMDDTLVNDVLRENDKKSSMRMAFMNLANSILGAGIITQPFAIKNAGILGGLLSYVALGFIVDWTLRLIVINLTLAGKRTYQGTVEHVMGKKGKLLILFTNGLFAFGGCIGYCIIIGDTIPHVLRAIFSQNDGNVHFWLRRNVIIVMVTTFISFPLSMKRNIEALSKASFLAVISMIIIVLTVVIRGPMLPYDWKGHSLKLSDFFMKATIFRSLSVISFALVCHHNTSFIFFSMRNRSVAKFTRLTHISIIISVICCALMGYSGFAVFKEKTKGNVLNSFPGTDTAINIARLCFGFNMLTTFPMEIFVLRDVVGNLLHECNLIKNYDEHTQLSGKQHVVITSSLVFITMGISLTTCNLGALFELIGATTASTMAYILPPYTNLLLTSKKKSWKERLPFYLCICFGFMIMIISSTQTIIDAVNGSDGQHCQI
# modifications: GST-His6 tag
# notes: as for B1
# B7: MUB1: yeast GST-HisX6 fusion protein on proteome chip (protein, UniProt Q03162 1-620, looked up)
# MYND-type zinc finger protein …: MRDSNHRSLTSNKPIVTITSTVYDRRALDINSSIPLINSLNYLTYLTSNSSKVRETVANDGALERLVSILRSCHLSLFELLDLDLENFNEHENIKDLWKEKRLALCAWKWTLTFQCLVLTGTRGTEQIRKKVVMSGVLSVLVTVLDNYLLYHKNYDFIKDQTMTFDFKGITTETMYKFMRKDENETYQQYIEFITGQDKLKLSTDKNFLNERLVAPSMTIPTDFSDIWGRFADLASNFEPDQERHDDDIDIDSEVESENFDAHKNFFSQPDINRPTISTPREFFLGRIVPKQDDVIWSLQLLAFVSKYTYMKSTLQNVELVESLSFRSMAYKIKQRISEENDLEEQERDVTVKLSSLYPYLSKNPENNSKVKALDTSKMDPFFKELEELSNRCQQEEQNEICNNHCPVLNLFERYRVPKPSDDNAYGKDKERINLRKKISDNFERRWSYDKMKKELTNIVYKNKVLTNVVNIFPLVEKYTVSAENTHDVIYWSSVIMRNSCRKNEILGVRQCANFSCGKWEDFPRQFAKCRRCKRTKYCSRKCQLKAWGYHRYWCHEVGSSHMRSTNTTTGVNTPNEPSSLNATATTAADVSNSTSTFTPNISTTVPDEISNRDENSIPE
# modifications: GST-HisX6 tag
# notes: as for B1
# B8: APG7: yeast GST-HisX6 fusion protein on proteome chip (protein, UniProt P38862 1-630, looked up)
# Ubiquitin-like …: MSSERVLSYAPAFKSFLDTSFFQELSRLKLDVLKLDSTCQPLTVNLDLHNIPKSADQVPLFLTNRSFEKHNNKRTNEVPLQGSIFNFNVLDEFKNLDKQLFLHQRALECWEDGIKDINKCVSFVIISFADLKKYRFYYWLGVPCFQRPSSTVLHVRPEPSLKGLFSKCQKWFDVNYSKWVCILDADDEIVNYDKCIIRKTKVLAIRDTSTMENVPSALTKNFLSVLQYDVPDLIDFKLLIIRQNEGSFALNATFASIDPQSSSSNPDMKVSGWERNVQGKLAPRVVDLSSLLDPLKIADQSVDLNLKLMKWRILPDLNLDIIKNTKVLLLGAGTLGCYVSRALIAWGVRKITFVDNGTVSYSNPVRQALYNFEDCGKPKAELAAASLKRIFPLMDATGVKLSIPMIGHKLVNEEAQHKDFDRLRALIKEHDIIFLLVDSRESRWLPSLLSNIENKTVINAALGFDSYLVMRHGNRDEQSSKQLGCYFCHDVVAPTDSLTDRTLDQMCTVTRPGVAMMASSLAVELMTSLLQTKYSGSETTVLGDIPHQIRGFLHNFSILKLETPAYEHCPACSPKVIEAFTDLGWEFVKKALEHPLYLEEISGLSVIKQEVERLGNDVFEWEDDESDEIA
# modifications: GST-His6 tag
# notes: as for B1
# Key:
# Conditions in all cases: liposome binding signal on yeast proteome chip, Cy3-streptavidin detection
# PI(4,5)P2 liposomes = assay: Yeast proteome chip probed with PI(4,5)P2 liposomes
# [1] = tested on: phosphatidylcholine (PC) liposomes; assay: Yeast proteome chip probed with PC liposomes
# How it was run: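 Binding of arrayed yeast proteins to sonicated PC liposomes, with or without 5% (w/w) phosphoinositide, is scored by streptavidin fluorescence on the biotinylated lipid tracer.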
# PI(3)P liposomes = assay: Yeast proteome chip probed with PI(3)P liposomes
# PI(3,4)P2 liposomes = assay: Yeast proteome chip probed with PI(3,4)P2 liposomes
# PI(4)P liposomes = assay: Yeast proteome chip probed with PI(4)P liposomes
# PI(3,4,5)P3 liposomes = assay: Yeast proteome chip probed with PI(3,4,5)P3 liposomes
Molecule,"PI(4, 5)P2 (PI(4,5)P2 liposomes)",PC [1],PI(3)P (PI(3)P liposomes),"PI(3, 4)P2 (PI(3,4)P2 liposomes)",PI(4)P (PI(4)P liposomes),"PI(3, 4, 5)P3 (PI(3,4,5)P3 liposomes)"
B1,21.99,−1.17,28.75,19.62,28.74,13.16
B2,282.63,621.00,318.00,249.28,666.29,108.67
B3,14.15,−4.70,2.00,4.71,13.28,−2.14
B4,14.37,5.58,−6.50,18.99,0.44,−9.22
B5,233.85,854.02,99.50,245.20,1431.44,269.10
B6,6.53,5.28,−5.00,−3.14,−3.92,−0.90
B7,−4.79,2.64,−6.00,9.89,19.38,9.79
B8,59.23,5.87,−22.50,−0.63,18.29,0.45
